Experimental data taken from patent US7119185.

B1: Hunk (hormonally up-regulated, neu-tumor-associated kinase), murine, 714-amino-acid ~80-kDa polypeptide (protein)
chain: MPAAAGDGLLGEPAAPGGDGGAEDTTRPAAACEGSFLPAWVSGVSRERLRDFQHHKRVGNYLIGSRKLGEGSFAKVREGLHVLTGEKVAIKVIDKKRAKKDTYVTKNLRREGQIQQMIRHPNITQLLDILETENSYYLVMELCPGGNLMHKIYEKKRLDEAEARRYIRQLISAVEHLHRAGVVHRDLKIENLLLDEDNNIKLIDFGLSNCAGILGYSDPFSTQCGSPAYAAPELLARKKYGPKIDVWSIGVNMYAMLTGTLPFTVEPFSLRALYQKMVDKAMNPLPTQLSTGAVNFLRSLLEPDPVKRPNIQQALANRWLNENYTGKVPCNVTYPNRISLEDLSPSVVLHMTEKLGYKNSDVINTVLSNRACHILAIYFLLNKKLERYLSGKSDIQDSICYKTQLYQIEKCRATKEPYEASLDTWTRDFEFHAVQDKKPKEQEKRGDFLHRPFSKKLDKNLPSHKQPSPSLITQLQSTKALLKDRKASKSGFPDKDSFVCRNLFRKTSDSNCVASSSMEFIPVPPPRTPRIVKKLEPHQPGPGSASILPKEEPLLLDMVRSFESVDREDHIELLSPSHHYRILSSPVSLARRNSSERTLSQGLLSGSTSPLQTPLHSTLVSFAHEEKNSPPKEEGVCSPPPVPSNGLLQPLGSPNCVKSRGRFPMMGIGQMLRKRHQSLQPSSERSLDASMSPLQPIAPSSLSFDMADGVKGQC
in vitro kinase assay of Hunk immunoprecipitates with [gamma-32P]ATP (histone H1): Hunk immunoprecipitates were able to phosphorylate both histone H1 and MBP in vitro
in vitro kinase assay of anti-Hunk (C-terminal antisera) immunoprecipitates from lactating mammary glands (histone H1): Hunk-associated kinase activity was substantially greater in immunoprecipitates prepared from transgenic when compared with wild type mammary glands
in vitro kinase assay of Hunk immunoprecipitates with [gamma-32P]ATP (myelin basic protein): Hunk immunoprecipitates were able to phosphorylate both histone H1 and MBP in vitro
